From publication doi:10.1101/2020.12.23.424221
Where two headings read alike, the source gives them in different places.

How the values were obtained:
Assay in all cases: single-molecule TIRF microscopy
[1] = molecular target: Taxol-stabilized rhodamine-labeled biotinylated microtubules (bovine) (UniProt Q6B856)
[2] = molecular target: Taxol-stabilized rhodamine-labeled biotinylated microtubules (bovine) (UniProt Q6B856); remark: listed apart in the source
[3] = molecular target: Taxol-stabilized rhodamine-labeled biotinylated microtubules (bovine) (UniProt Q6B856); remark: listed apart in the source
[4] = molecular target: Taxol-stabilized rhodamine-labeled biotinylated microtubules (bovine) (UniProt Q6B856); remark: listed apart in the source
[5] = molecular target: Taxol-stabilized rhodamine-labeled biotinylated microtubules (bovine) (UniProt Q6B856); remark: listed apart in the source
[6] = molecular target: Taxol-stabilized rhodamine-labeled biotinylated microtubules (bovine) (UniProt Q6B856); remark: listed apart in the source
[7] = molecular target: Taxol-stabilized rhodamine-labeled biotinylated microtubules (bovine) (UniProt Q6B856); remark: listed apart in the source
[8] = molecular target: Taxol-stabilized rhodamine-labeled biotinylated microtubules (bovine) (UniProt Q6B856); remark: listed apart in the source
[9] = molecular target: Taxol-stabilized rhodamine-labeled biotinylated microtubules (bovine) (UniProt Q6B856); remark: listed apart in the source
[10] = molecular target: Taxol-stabilized rhodamine-labeled biotinylated microtubules (bovine) (UniProt Q6B856); remark: listed apart in the source
[11] = molecular target: Taxol-stabilized rhodamine-labeled biotinylated microtubules (bovine) (UniProt Q6B856); remark: listed apart in the source
[12] = molecular target: Taxol-stabilized rhodamine-labeled biotinylated microtubules (bovine) (UniProt Q6B856); remark: listed apart in the source

lifetime on the microtubule (median) [1]: 17.9 s | lifetime on the microtubule (median) [2]: 1.5 s | lifetime on the microtubule (median) [3]: 4.9 s | lifetime on the microtubule (median) [4]: 2.1 s | lifetime on the microtubule (median) [5]: 4.2 s | lifetime on the microtubule (median) [6]: 1.8 s | lifetime on the microtubule (median) [7]: 8.3 s | lifetime on the microtubule (median) [8]: 7.2 s | lifetime on the microtubule (median) [9]: 1.2 s | lifetime on the microtubule (median) [10]: 3.9 s | lifetime on the microtubule (median) [11]: 3.6 s | lifetime on the microtubule (median) [12]: 9 s
B1: GFP-tagged Kif4A (natural protein)
chain: MKEEVKGIPVRVALRCRPLVPKEISEGCQMCLSFVPGEPQVVVGTDKSFTYDFVFDPSTEQEEVFNTAVAPLIKGVFKGYNATVLAYGQTGSGKTYSMGGAYTAEQENEPTVGVIPRVIQLLFKEIDKKSDFEFTLKVSYLEIYNEEILDLLCPSREKAQINIREDPKEGIKIVGLTEKTVLVALDTVSCLEQGNNSRTVASTAMNSQSSRSHAIFTISLEQRKKSDKNSSFRSKLHLVDLAGSERQKKTKAEGDRLKEGININRGLLCLGNVISALGDDKKGGFVPYRDSKLTRLLQDSLGGNSHTLMIACVSPADSNLEETLNTLRYADRARKIKNKPIVNIDPQTAELNHLKQQVQQLQVLLLQAHGGTLPGSITVEPSENLQSLMEKNQSLVEENEKLSRGLSEAAGQTAQMLERIILTEQANEKMNAKLEELRQHAACKLDLQKLVETLEDQELKENVEIICNLQQLITQLSDETVACMAAAIDTAVEQEAQVETSPETSRSSDAFTTQHALRQAQMSKELVELNKALALKEALARKMTQNDSQLQPIQYQYQDNIKELELEVINLQKEKEELVLELQTAKKDANQAKLSERRRKRLQELEGQIADLKKKLNEQSKLLKLKESTERTVSKLNQEIRMMKNQRVQLMRQMKEDAEKFRQWKQKKDKEVIQLKERDRKRQYELLKLERNFQKQSNVLRRKTEEAAAANKRLKDALQKQREVADKRKETQSRGMEGTAARVKNWLGNEIEVMVSTEEAKRHLNDLLEDRKILAQDVAQLKEKKESGENPPPKLRRRTFSLTEVRGQVSESEDSITKQIESLETEMEFRSAQIADLQQKLLDAESEDRPKQRWENIATILEAKCALKYLIGELVSSKIQVSKLESSLKQSKTSCADMQKMLFEERNHFAEIETELQAELVRMEQQHQEKVLYLLSQLQQSQMAEKQLEESVSEKEQQLLSTLKCQDEELEKMREVCEQNQQLLRENEIIKQKLTLLQVASRQKHLPKDTLLSPDSSFEYVPPKPKPSRVKEKFLEQSMDIEDLKYCSEHSVNEHEDGDGDDDEGDDEEWKPTKLVKVSRKNIQGCSCKGWCGNKQCGCRKQKSDCGVDCCCDPTKCRNRQQGKDSLGTVERTQDSEGSFKLEDPTEVTPGLSFFNPVCATPNSKILKEMCDVEQVLSKKTPPAPSPFDLPELKHVATEYQENKAPGKKKKRALASNTSFFSGCSPIEEEAH
